Assay results taken from the supplement of paper PMC9170038.

Test system: MS2 coat protein
Assay: apparent KD of MS2 coat protein; designed switch direction (-1 OFF switch, 1 ON switch): 1; higher = weaker reporter binding
Method in brief: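 The reported apparent KD is a per-design median over clusters, from curve fits of normalised cluster fluorescence. Protein titrations used SNAP-549-labelled MS2 coat protein, doubled from 0.7 or 1.5 nM to 3 µM, in Tris-HCl pH 7.5 buffer with KCl, MgCl2, BSA, DTT, tRNA and Tween-20, with no input, 200 uM small-molecule ligand, or an oligonucleotide input. The RNA switches were transcribed on Illumina chips by stalled E. coli RNA polymerase.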

[1] = Eterna round: R95, input ligand: FMN 200 uM
[2] = Eterna round: R95, input ligand: microRNA oligo, concentration not stated
[3] = Eterna round: R95, input ligand: none
[4] = input ligand: microRNA oligo, concentration not stated

## AGUGAACAUGAGGAUCACCCAUGUGAGAGAAGUGUAGGAUAUGUGAGAGGCGGAGGAGGGACAGAAGGACAUGGAG [JR_SS!_Sub075] (puzzle: Same State 1)
[1]
  apparent KD of MS2 coat protein: 38.7 nM
[2]
  apparent KD of MS2 coat protein: 42 nM
[3]
  apparent KD of MS2 coat protein: 48.5 nM

## GUUAUACAUGAGGAUCACCCAUGUCAAUGUAGUCGAGGAUAUGGGUAGCCAUGAGGCGUACUAGAAGGCGAGGAGU [JL-ss1-3.19 ViennaUCT mod] (puzzle: Same State 1)
[1]
  apparent KD of MS2 coat protein: 130 nM
[2]
  apparent KD of MS2 coat protein: 68.8 nM
[3]
  apparent KD of MS2 coat protein: 81.5 nM

## GCGAGCGUACUUGCAGACAUGAGGAUCACCCAUGUAAAUGGGAAGGAUAUGGUACCGUUUCGGUACCAGAAGGUCCUAAGUGAG [JL SSNG3 1.49] (Eterna round: R96, puzzle: Same State NG 3)
Input ligand: FMN 200 uM
  apparent KD of MS2 coat protein: 129 nM
[4]
  apparent KD of MS2 coat protein: 702 nM
Input ligand: none
  apparent KD of MS2 coat protein: 646 nM

## AGAGAACAUGAGGAUCACCCAUGUGGGAGAAACAUAGGAUAUAGGAGAGAGAGGGAGGAGCUAGAAGGAUGAUGGA [JR_SS1_Sub082] (puzzle: Same State 1)
[1]
  apparent KD of MS2 coat protein: 80.5 nM
[2]
  apparent KD of MS2 coat protein: 91.1 nM
[3]
  apparent KD of MS2 coat protein: 105 nM

## GGUACCAUCACAGGAUAUGCUAUCCUUUGGGUAGCAGAAGGGUGAUACAUGAGGAUCACCCAUGUGGUGCCAGGGCGUGAGCCC [JL SSNG1 1.91] (Eterna round: R96, puzzle: Same State NG 1)
Input ligand: FMN 200 uM
  apparent KD of MS2 coat protein: 901 nM
[4]
  apparent KD of MS2 coat protein: 44.5 nM
Input ligand: none
  apparent KD of MS2 coat protein: 331 nM

## GAAGGAUGAGCGUAGGAUAUAGGAGGAGUGACAUGAGGAUCACCCAUGUAGUAGGAGGGAGGGUACUAGAAGGACGAGGAAGAAG [JR_SS2_Sub067] (puzzle: Same State 2)
[1]
  apparent KD of MS2 coat protein: 39.7 nM
[2]
  apparent KD of MS2 coat protein: 49.3 nM
[3]
  apparent KD of MS2 coat protein: 51.5 nM

## CGGGUGAUCGUAGGAUAUCUAGGAUAUGAACGAGGAUCACCCGAGCAGCAUCAGCGCAUCAGAGGAGAGAAGGACGAUCAUGCG [pwkr ssNG2 2F5 2FMN.7] (Eterna round: R96, puzzle: Same State NG 2)
Input ligand: FMN 200 uM
  apparent KD of MS2 coat protein: 326 nM
[4]
  apparent KD of MS2 coat protein: 12.9 nM
Input ligand: none
  apparent KD of MS2 coat protein: 59.1 nM

## GGCUGCGUUGUGAAGGAUAUCCGCGUCUGGACAUGAGGAUCACCCAUGUAUGCUUGGAUCAUGCCGGAGAAGGUCACGAAUGAUU [JR_SS002_Sub1214] (Eterna round: R96, puzzle: Same State 2)
Input ligand: FMN 200 uM
  apparent KD of MS2 coat protein: 17 nM
[4]
  apparent KD of MS2 coat protein: 19.9 nM
Input ligand: none
  apparent KD of MS2 coat protein: 32.9 nM

## AGUCCAGCCUGAGCUGGACAAAAGCAUGUACAUGAGGAUCACCCAUGUUCAUGUACAAGCUUUUUGCUCGUCUAAAU [Mat - hsa-mir-208a - Mod of JL - 46] (puzzle: Sensor for hsa-mir-208a)
[1]
  apparent KD of MS2 coat protein: 449 nM
[2]
  apparent KD of MS2 coat protein: 15.5 nM
[3]
  apparent KD of MS2 coat protein: 682 nM

## AUAAAACAUGAGGAUCACCCAUGUCAACAAAGUCGAGGAUAUGGGCAAAUAAAAUAAGAACCAGAAGGCGAAUAAC [salish99_SS1_r3_003] (puzzle: Same State 1)
[2]
  apparent KD of MS2 coat protein: 339 nM

## GCUAGGAUAUGACGAGGAUCACCCGUUAGAAGGAGCUUCGGCUAGGAUAUGACGAGGAUCACCCGUUAGAAGGAGCUGUACUCU [pwkr ssNG3 DX 2xF5 +2xFMN.9] (Eterna round: R96, puzzle: Same State NG 3)
Input ligand: FMN 200 uM
  apparent KD of MS2 coat protein: 144 nM
[4]
  apparent KD of MS2 coat protein: 76.7 nM
Input ligand: none
  apparent KD of MS2 coat protein: 92.3 nM

## GAUCGUUUGAUAGGAUAUCGCUAUACAUGAGGAUCACCCAUGUUUACCACGCUGGUUUUUCGUACCGAGAAGGAUUCUGAUGAU [JL JR sub007 mod 5] (Eterna round: R96, puzzle: Same State NG 2)
Input ligand: FMN 200 uM
  apparent KD of MS2 coat protein: 31.4 nM
[4]
  apparent KD of MS2 coat protein: 24.4 nM
Input ligand: none
  apparent KD of MS2 coat protein: 35.4 nM

## UGUUGUAUUACAGGAUAUCUAGUGUUUUUAUUUAGAGAAGGGUAUUCACAUGAGGAUCACCCAUGUAUAUACGAGGAAGUUGUG [JMF's solution 34] (Eterna round: R96, puzzle: Same State NG 1)
[4]
  apparent KD of MS2 coat protein: 43 nM

## AUUAUACAUGAGGAUCACCCAUGUAAUUAAUUAAUUAAGAUCAAGGAUAUCAGCUCGAAUAGAGCUGAGAAGGUGAUCACAUGU [SSNG3/20-B1] (Eterna round: R96, puzzle: Same State NG 3)
[4]
  apparent KD of MS2 coat protein: 218 nM

## UGGAUCUAGGCUUGCCUGGGUCCAUGUUGACAUGAGGAUCACCCAUGUGUAUUUUUUUUGCUUUUUGUUUGUCAACU [JL A Humble Attempt mod 11] (puzzle: Sensor for hsa-mir-208a)
[1]
  apparent KD of MS2 coat protein: 25.2 nM
[2]
  apparent KD of MS2 coat protein: 12.7 nM
[3]
  apparent KD of MS2 coat protein: 26.5 nM

## CCCGCGUUUCGCGCCUACAUGAGGAUCACCCAUGUUUGUAGGCAGGAUAUCGUCCGCUCUGCGGGCGAGAAGGGCUGUUGUGGU [salish99_SSNG3_R04_029] (Eterna round: R96, puzzle: Same State NG 3)
[4]
  apparent KD of MS2 coat protein: 72.9 nM

## UCUUGGUUUUUGCUCGUUUUUUGUGUUGAACAUGAGGAUCACCCAUGUAUUGUACGAUCCAAUUUGAUAAUGGUCCG [JMF 61] (puzzle: Sensor for hsa-mir-208a)
[1]
  apparent KD of MS2 coat protein: 44.2 nM
[2]
  apparent KD of MS2 coat protein: 34.4 nM
[3]
  apparent KD of MS2 coat protein: 48.7 nM

## AGUGAAGAAGCUGAGGAUAUCGUAAGGAGGACAUGAGGAUCACCCAUGUGUGUGGAAUUGGAGGACGAGAAGGCAGAGGAGUGGG [JR_SS2_Sub057] (puzzle: Same State 2)
[1]
  apparent KD of MS2 coat protein: 39.3 nM
[2]
  apparent KD of MS2 coat protein: 42.6 nM
[3]
  apparent KD of MS2 coat protein: 22.7 nM

## GGAGCCAAGGCAGGAUAUUCAAAACAUGAGGAUCACCCAUGUGGGUAAAAGGCCAGAAGGCCUUGGGAGAAGGGCCAUGGCUCG [Xeonanis - 13 mod12] (Eterna round: R96, puzzle: Same State NG 2)
Input ligand: FMN 200 uM
  apparent KD of MS2 coat protein: 11.5 nM
[4]
  apparent KD of MS2 coat protein: 9.02 nM
Input ligand: none
  apparent KD of MS2 coat protein: 15.8 nM

## GCGAUAUGAUGCUACAUGAGGAUCACCCAUGUAGCGACAGCUAAGGAUAUUGGAAAGGGAGGAGACGAGAAGGUAGGGUCACGC [AK SSNG3-V2-24.1] (Eterna round: R96, puzzle: Same State NG 3)
Input ligand: FMN 200 uM
  apparent KD of MS2 coat protein: 11.5 nM
[4]
  apparent KD of MS2 coat protein: 11.6 nM
Input ligand: none
  apparent KD of MS2 coat protein: 17.2 nM

## ACGCUAAAUGGAGGAUAUGGAGCCUUAUUGGCUCCAGAAGGUCAAAACAUGAGGAUCACCCAUGUGCGGUGGUCUAAUGACCAC [Eli NG1ss - 47] (Eterna round: R96, puzzle: Same State NG 1)
Input ligand: FMN 200 uM
  apparent KD of MS2 coat protein: 68 nM
[4]
  apparent KD of MS2 coat protein: 99.2 nM
Input ligand: none
  apparent KD of MS2 coat protein: 169 nM

## GAGGGACAGACCAACAUGAGGAUCACCCAUGUCCUCGCAGUUCAGGAUAUCUGGAGGAAGAAGAAAGAGAAGGGAAGGUGAACC [AK SSNG3-V2-35] (Eterna round: R96, puzzle: Same State NG 3)
Input ligand: FMN 200 uM
  apparent KD of MS2 coat protein: 312 nM
[4]
  apparent KD of MS2 coat protein: 65.3 nM
Input ligand: none
  apparent KD of MS2 coat protein: 120 nM

## GGUAUCUCCCGUGAGGAUAUGCGGCGUAGAACAUGAGGAUCACCCAUGUCCUUCGAAUGGGUUACGCAGAAGGCACGACGGUACC [Robot Leg #2] (puzzle: Same State 2)
[2]
  apparent KD of MS2 coat protein: 24.5 nM

## GGAGCCGGCACUGAGGAUAUUCGUAUUAAAACAUGAGGAUCACCCAUGUAGGCCAGAAGGCCUUGGGAGAAGGCAGGUCGACUCG [Diqureveri - 2] (puzzle: Same State 2)
[1]
  apparent KD of MS2 coat protein: 17.2 nM
[2]
  apparent KD of MS2 coat protein: 38.9 nM
[3]
  apparent KD of MS2 coat protein: 59.7 nM

## AUUAUUUAUGCAGGAUAUGAUUAACAUGAGGAUCACCCAUGUGGUGUUGUGAGUAAGGAGAGUGAUCAGAAGGGCAUUUUUUUG [JMF's solution 57] (Eterna round: R96, puzzle: Same State NG 2)
Input ligand: FMN 200 uM
  apparent KD of MS2 coat protein: 666 nM
[4]
  apparent KD of MS2 coat protein: 451 nM
Input ligand: none
  apparent KD of MS2 coat protein: 350 nM

## CUAGGAGGAUGAGGAUAUGCAGAGGAUCACCCUGUAGAAGGCAAGAGAUGAGGAUAUGCAGAGGAUCACCCUGUAGAAGGCAAC [pwkr ssNG DX.1] (Eterna round: R96, puzzle: Same State NG 1)
Input ligand: FMN 200 uM
  apparent KD of MS2 coat protein: 307 nM
[4]
  apparent KD of MS2 coat protein: 86.5 nM
Input ligand: none
  apparent KD of MS2 coat protein: 122 nM

## UGGAUCUAGGCUUGCCUGGGUCCAUGUUGACAUGAGGAUCACCCAUGUGUAUUCUAUAAGCUUUUUGUUUGUCAACU (puzzle: Sensor for hsa-mir-208a)
[1]
  apparent KD of MS2 coat protein: 62.5 nM
[2]
  apparent KD of MS2 coat protein: 23.3 nM
[3]
  apparent KD of MS2 coat protein: 130 nM

## GGUGGGUUGCUGCCGGCACAUGAGGAUCACCCAUGUUUUGGGAAGGAUAUGGUACCUAUUUGGUGCCAGAAGGUCCCGUUGGUG [salish99_SSNG3_r04_710] (Eterna round: R96, puzzle: Same State NG 3)
Input ligand: FMN 200 uM
  apparent KD of MS2 coat protein: 402 nM
[4]
  apparent KD of MS2 coat protein: 376 nM
Input ligand: none
  apparent KD of MS2 coat protein: 480 nM

## AUUUUAAAUGCAGGAUAUGAUUAACAUGAGGAUCACCCAUGUGGUGUUGUGAGUAAGGAGAGUGAUCAGAAGGGCAUUUUUUUU [JMF's solution 95] (Eterna round: R96, puzzle: Same State NG 2)
Input ligand: FMN 200 uM
  apparent KD of MS2 coat protein: 748 nM
[4]
  apparent KD of MS2 coat protein: 546 nM
Input ligand: none
  apparent KD of MS2 coat protein: 714 nM

## GGAGCCGGCACUGAGGAUAUUCAUAUUAAAACAUGAGGAUCACCCAUGUAGGCCAGAAGGCCUUGGGAGAAGGCAGGUCGACUCG [Diqureveri] (Eterna round: R96, puzzle: Same State 2)
Input ligand: FMN 200 uM
  apparent KD of MS2 coat protein: 24.5 nM
[4]
  apparent KD of MS2 coat protein: 159 nM
Input ligand: none
  apparent KD of MS2 coat protein: 209 nM

## CGUCCAGCCUGAGCUGGACAAAAGCAUGUACAUGAGGAUCACCCAUGUUCAUGUACAAGCUUUUUGCUCGUCUUACC [salish99_208a_r3_094x] (Eterna round: R96, puzzle: Sensor for hsa-mir-208a)
Input ligand: FMN 200 uM
  apparent KD of MS2 coat protein: 760 nM
[4]
  apparent KD of MS2 coat protein: 14.3 nM
Input ligand: none
  apparent KD of MS2 coat protein: 752 nM

## UUUGGGUGGCUGGAGGAUAUCCUGGUUGUUACAUGAGGAUCACCCAUGUGCCGCGCGGUGCGCUGGGAGAAGGCCGGCGGCCGUU (puzzle: Same State 2)
[1]
  apparent KD of MS2 coat protein: 28.9 nM
[2]
  apparent KD of MS2 coat protein: 61.1 nM
[3]
  apparent KD of MS2 coat protein: 141 nM
